Literature values, collected in article PMC10330345.
pKd: −log10 of the molar value.

Molecular target: BTN3A1 272-513 (Homo sapiens) (UniProt O00481)
Assay: ITC

Sequence of BTN3A1 272-513 (Homo sapiens) (O00481 272-513): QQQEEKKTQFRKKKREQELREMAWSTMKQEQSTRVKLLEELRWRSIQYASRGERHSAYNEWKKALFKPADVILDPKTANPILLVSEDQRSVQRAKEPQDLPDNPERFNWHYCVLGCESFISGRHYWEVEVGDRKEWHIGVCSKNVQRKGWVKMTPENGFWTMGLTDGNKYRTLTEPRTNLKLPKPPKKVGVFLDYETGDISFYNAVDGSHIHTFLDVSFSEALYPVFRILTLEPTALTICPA

BTN2A1 271-527 (from UniProt Q7KYR7)
pKd: 6.05
